Experiments:
刺突S蛋白-鼠Fc融合蛋白(S-mFc) = 刺突S蛋白-鼠Fc融合蛋白(S-mFc) (SARS-CoV-2; mouse, UniProt P0DTC2 14-1213); assay: FACS competition: antibody blocks binding of S-mFc to 293T-ACE2 cells
[1] = biological target: T1, SARS-CoV-2 S1蛋白 (ACRO Biosystems) (SARS-CoV-2, UniProt P0DTC2 16-685); assay: competition ELISA, S1 coated, HRP-hACE2-Fc as competitor
T1 construct: domain: S1

Binder | IC50 (刺突S蛋白-鼠Fc融合蛋白(S-mFc)) [µg/mL] | EC50 [1] [µg/mL]
人源化抗体hS1B-82-5 (antibody, V domains shown, also called 抗SARS-CoV-2 S1人源化抗体; 人源化单克隆抗体hS1B-82-5) VH: EVILSESGGGSVKPGGSLRLSCAASGFTFSSYAMSWIRQAPGKRLEWGSTINSGGNFIYYPDSVKGRFTISRDNAKNSLYLQMNSLRAEDTAVYFCGRHSGNYVDSAMDYWGQGTTVTVSS VL: EIVLTQSPATLSVSPGERATLSCSASSSVSDMHWYQQKPGKSPKLLIYSTSNLASGVPSRFSGSGSGTEYTLTISSLQPEDVATYYCHQWSTWTFGGGTKVEIKR | 0.0193 | 0.166
鼠源单克隆抗体S1B-82-5 (antibody, V domains shown, also called 鼠源抗体S1B-82-5; 鼠抗S1B-82-5) VH: EVILVESGGGLVKPGGSLKLSCAASGFTFSSYAMSWIRQTPEKRLEWGATINSGGNFIYYPDSVKGRFTISRDNAKNTLYLQMSSLRSEDTAMYFCGRHSGNYVDSAMDYWGQGTSVTVSS VL: QIVLTQSPAIMSASLGEEITLTCSASSSVSDMHWYQQKSGSSPKLLIYSTSNLASGVPSRFSGSGSGTFYSLTVSSVEAEDAADYYCHQWSTWTFGGGTKLEIK | 0.016 | 

Reference: CN114106162A (ANYUAN MEDICINE SCIENCE AND TECH SHANGHAI LIMITED COMPANY, dated 2022)
